Paper doi:10.1101/701797 (bioRxiv, 2019)
Substitutions are numbered along the chain they refer to. Names and notes keep the numbering of the source. Values joined by “and” are separate entries in the source; they are usually repeats but may differ in a detail not shown here. Equal entries are not always repeated.

B1: wild-type phospholamban (natural protein, dog, UniProt P61012 1-52, looked up)
chain: MDKVQYLTRSAIRRASTIEMPQQARQNLQNLFINFCLILICLLLICIIVMLL
B2: L42A mutant of C41L-PLB (natural protein, dog, UniProt P61012 1-52, looked up)
chain: B1 chain with C41L, L42A
B3: I38A mutant of C41L-PLB (natural protein, dog, UniProt P61012 1-52, looked up)
chain: B1 chain with I38A, C41L
B4: C41L-PLB (natural protein, dog, UniProt P61012 1-52, looked up)
chain: B1 chain with C41L
B5: I48A mutant of C41L-PLB (natural protein, dog, UniProt P61012 1-52, looked up)
chain: B1 chain with C41L, I48A
B6: L39A mutant of C41L-PLB (natural protein, dog, UniProt P61012 1-52, looked up)
chain: B1 chain with L39A, C41L

Columns and labels:
[1] = target: the molecule itself; assay: SDS-PAGE oligomerization assay
[2] = target: the molecule itself; assay: SDS-PAGE oligomerization assay with immunoblot
[3] = target: the molecule itself; assay: SDS-PAGE oligomerization assay; remark: listed apart in the source

Row | Protein | stoichiometry N [1] | stoichiometry N [2] | stoichiometry N [3]
1 | B1 | > 6 | 2 and 4 and ~6 | 5
2 | B2 | – | 4 | –
3 | B3 | – | 4 | –
4 | B4 | – | 4 | –
5 | B5 | – | 5 | –
6 | B6 | – | 4 | –
